Reference: the supplement of paper PMC10598134
± gives the standard deviation.

Test: collision cross section of modified peptide (TIMS, N2, iRT-aligned); higher = larger / more extended gas-phase ion
How it was run: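 Values are averages of 1–3 technical replicates of the most abundant feature for each charge state. Collision cross section was obtained from the Mason-Schamp equation after 1/K0 calibration with three reference ions and run-wise alignment to the median iRT peptide deviation. Synthetic peptide pools (iRT standard spiked 1:40) were separated on a 120-min nanoflow C18 gradient at 60 °C, analysed on a timsTOF Pro/HT (dda-PASEF, nitrogen, ~2.4 mbar) and identified with MaxQuant.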

[1] = charge state: 2, modification: hydroxyisobutyryl
[2] = charge state: 2, modification: Glutarylation
[3] = charge state: 3, modification: Glutarylation
[4] = charge state: 2, modification: Trimethyl (K)
[5] = charge state: 3, modification: Trimethyl (K)
[6] = charge state: 2, modification: GlyGly (K)
[7] = charge state: 3, modification: GlyGly (K)
[8] = charge state: 3, modification: HexNAc (ST)
[9] = charge state: 2, modification: Biotin
[10] = charge state: 3, modification: Biotin
[11] = charge state: 2, modification: Malonyl
[12] = charge state: 2, modification: Succinyl
[13] = charge state: 3, modification: Succinyl
[14] = charge state: 2, modification: Hydroxyproline
[15] = charge state: 3, modification: Hydroxyproline
[16] = charge state: 2, modification: Nitro (Y)
[17] = charge state: 2, modification: Formyl
[18] = charge state: 2, modification: Propionyl
[19] = charge state: 2, modification: Methyl (K)
[20] = charge state: 3, modification: Methyl (K)
[21] = charge state: 2, modification: Dimethyl (K)
[22] = charge state: 3, modification: Dimethyl (K)
[23] = charge state: 3, modification: Formyl
[24] = charge state: 2, modification: Phospho (Y)
[25] = charge state: 3, modification: Phospho (Y)
[26] = charge state: 2, modification: Acetyl (K)
[27] = charge state: 3, modification: Acetyl (K)
[28] = charge state: 3, modification: Citrullination (R)

Substance “AGPNASIISLKSDK [_AGPNASIISLK(hydroxyisobutyryl)SDK_]” has a collision cross section [1] of 415.63 ± 0.53 Å².

Substance “FGTINIVHPKLGSYTK [_FGTINIVHPK(Gluratylation)LGSYTK_]” has a collision cross section [2] of 478.34 Å² and a collision cross section [3] of 554.9 ± 0.14 Å².

Substance “AGPNASIISLKSDK [_AGPNASIISLK(Trimethyl (K))SDK_]” has a collision cross section [4] of 422.03 ± 0.65 Å² and a collision cross section [5] of 457.38 ± 2.4 Å².

Substance “STGLELETPSLVPVKK [_STGLELETPSLVPVK(GlyGly (K))K_]” has a collision cross section [6] of 452.54 ± 1.9 Å² and a collision cross section [7] of 530.27 ± 9.4 Å².

“RLDINTNTYTSQDLK [_RLDINTNTYTS(HexNAc (ST))QDLK_]” gave a collision cross section [8] of 511.61 ± 0.96 Å².

For “ASDTSSETVFGKR [_ASDTSSETVFGK(hydroxyisobutyryl)R_]”, the collision cross section [1] was 403.06 ± 1.1 Å² and the collision cross section (charge state: 3, modification: hydroxyisobutyryl) was 485.06 ± 0.47 Å².

With AAINQKLIETGER [_AAINQK(Biotin)LIETGER_] the collision cross section [9] was 426.96 ± 1.5 Å² and the collision cross section [10] was 497.24 Å².

With “SGNLTEDDKHNNAK [_SGNLTEDDK(Malonyl)HNNAK_]” the collision cross section [11] was 417.21 ± 1.6 Å².

For “VLTANSNPSSPSAAKR [_VLTANSNPSSPSAAK(Succinyl)R_]”, the collision cross section [12] was 430.61 ± 1.1 Å² and the collision cross section [13] was 526.23 ± 1.1 Å².

For SLKLNTAEDAK [_SLK(Malonyl)LNTAEDAK_], the collision cross section [11] was 374.06 ± 0.0012 Å².

In the case of “TLDEILQEKK [_TLDEILQEK(Gluratylation)K_]”, the collision cross section [2] is reported as 387.75 ± 3.2 Å² and the collision cross section [3] is reported as 452.89 ± 2.4 Å².

“GDKGDAGEPGR [_GDKGDAGEP(Hydroxyproline)GR_]” showed a collision cross section [14] of 331.51 ± 0.55 Å² and a collision cross section [15] of 414.61 ± 0.42 Å².

With “ISSNFSSIIAEKLR [_ISSNFSSIIAEK(hydroxyisobutyryl)LR_]” the collision cross section [1] was 431.4 ± 1.4 Å².

“VGLQVVAVKAPGFGDNR [_VGLQVVAVK(Malonyl)APGFGDNR_]” showed a collision cross section [11] of 445.13 ± 1 Å² and a collision cross section (charge state: 3, modification: Malonyl) of 541.36 ± 0.027 Å².

“EGFSIPVSADGFK [_EGFSIPVS(HexNAc (ST))ADGFK_]” gave a collision cross section (charge state: 2, modification: HexNAc (ST)) of 412.81 ± 0.62 Å².

LELAQYR [_LELAQY(Nitro (Y))R_] showed a collision cross section [16] of 326.89 ± 0.56 Å².

IGNSYFKEEK [_IGNSYFK(Formyl)EEK_] showed a collision cross section [17] of 368.62 ± 0.55 Å².

In the case of “INNFSADIKDSK [_INNFSADIK(GlyGly (K))DSK_]”, the collision cross section [6] is reported as 406.34 ± 0.36 Å² and the collision cross section [7] is reported as 465 ± 2.2 Å².

“TQDQISNIKYHEEFEK [_TQDQISNIK(GlyGly (K))YHEEFEK_]” gave a collision cross section [7] of 559.05 ± 0.57 Å².

VETTVTSLKTK [_VETTVTSLK(Biotin)TK_] showed a collision cross section [9] of 412.03 ± 1.9 Å².

“DTPTSAGPNSFNKGK [_DTPTSAGPNSFNK(Propionyl)GK_]” showed a collision cross section [18] of 410.13 ± 0.64 Å².

With “DYSAPVNFISAGLKK [_DYSAPVNFISAGLK(Biotin)K_]” the collision cross section [9] was 458.59 ± 0.47 Å² and the collision cross section [10] was 548.62 Å².

In the case of “SGNLTEDDKHNNAK [_SGNLTEDDK(Methyl (K))HNNAK_]”, the collision cross section [19] is reported as 417.49 ± 1.1 Å² and the collision cross section [20] is reported as 487.35 ± 2.7 Å².

With LDHLAEKFR [_LDHLAEK(Dimethyl (K))FR_] the collision cross section [21] was 368.82 ± 0.36 Å² and the collision cross section [22] was 433.76 ± 2.1 Å².

For “FSYTSQHSDYGQR [_FS(HexNAc (ST))YTSQHSDYGQR_]”, the collision cross section [8] was 502.75 ± 0.96 Å².

With “TPLTHALPGLSEQEGQK [_T(HexNAc (ST))PLTHALPGLSEQEGQK_]” the collision cross section [8] was 513.42 ± 0.96 Å².

In the case of “DYSAPVNFISAGLKK [_DYSAPVNFISAGLK(Trimethyl (K))K_]”, the collision cross section [4] is reported as 463.71 ± 1 Å² and the collision cross section [5] is reported as 523.24 ± 1.8 Å².

In the case of “STGLELETPSLVPVKK [_STGLELETPSLVPVK(Formyl)K_]”, the collision cross section [17] is reported as 431.64 ± 1.2 Å² and the collision cross section [23] is reported as 516.5 ± 3 Å².

For “GEVQVSDKER [_GEVQVSDK(hydroxyisobutyryl)ER_]”, the collision cross section [1] was 366.78 ± 0.27 Å².

Substance LYAVHQEGNK [_LY(Phospho (Y))AVHQEGNK_] has a collision cross section [24] of 367.74 ± 0.74 Å² and a collision cross section [25] of 466.01 ± 0.98 Å².

“FSAYIKNSNPALNDNLEK [_FSAYIK(Acetyl (K))NSNPALNDNLEK_]” showed a collision cross section [26] of 479.82 ± 3 Å² and a collision cross section [27] of 541.74 Å².

Substance “SYSVGASGSSSR [_SY(Nitro (Y))SVGASGSSSR_]” has a collision cross section [16] of 351.9 ± 1.2 Å².

“KYEEIDNAPEER [_K(Gluratylation)YEEIDNAPEER_]” gave a collision cross section [2] of 417.33 ± 0.59 Å² and a collision cross section [3] of 495.54 ± 1 Å².

“SDDESSQKDIK [_SDDESSQK(Trimethyl (K))DIK_]” gave a collision cross section [4] of 380.2 ± 1.7 Å² and a collision cross section [5] of 430.76 ± 2.7 Å².

“HGGSGGRGVSVSSAR [_HGGSGGR(Citrullination (R))GVSVSSAR_]” gave a collision cross section [28] of 485.51 ± 3.7 Å².

VQFAPEK [_VQFAP(Hydroxyproline)EK_] gave a collision cross section [14] of 316.39 ± 1.9 Å².

For “DTGEKLTVAENEAETK [_DTGEK(Succinyl)LTVAENEAETK_]”, the collision cross section [12] was 445.72 ± 1.1 Å² and the collision cross section [13] was 515.74 ± 2.2 Å².

“ITESVAETAQTIKK [_ITESVAETAQTIK(Acetyl (K))K_]” showed a collision cross section [26] of 418.11 ± 1.3 Å² and a collision cross section [27] of 510.01 ± 1.7 Å².

For LTSLNVKYNNDK [_LTSLNVK(Malonyl)YNNDK_], the collision cross section [11] was 402.04 ± 0.61 Å².

“VFIGNLNTLVVKK [_VFIGNLNTLVVK(Dimethyl (K))K_]” showed a collision cross section [21] of 427.12 ± 1.4 Å² and a collision cross section [22] of 478.47 ± 1.2 Å².

Substance “VTLEVGKVIQQGR [_VTLEVGK(Dimethyl (K))VIQQGR_]” has a collision cross section [21] of 422.85 ± 1.4 Å² and a collision cross section [22] of 464.75 ± 1.6 Å².

In the case of “PANEKATDDYHYEK [_PANEK(Biotin)ATDDYHYEK_]”, the collision cross section [10] is reported as 529.25 ± 3.6 Å².

In the case of “DTGEKLTVAENEAETK [_DTGEK(Crotonyl)LTVAENEAETK_]”, the collision cross section (charge state: 2, modification: Crotonyl) is reported as 449.13 ± 0.83 Å².

For “TGGTQTDLFTCGKCK [_TGGTQTDLFTCGK(hydroxyisobutyryl)CK_]”, the collision cross section [1] was 448.92 Å².

Substance “GLPGEPGPRGLLGPK [_GLP(Hydroxyproline)GEPGPRGLLGPK_]” has a collision cross section [15] of 506.02 ± 0.37 Å².

YLHDESGLNR [_Y(Phospho (Y))LHDESGLNR_] showed a collision cross section [24] of 372.11 ± 0.77 Å² and a collision cross section [25] of 460.83 ± 0.1 Å².

In the case of “TLDEILQEKK [_TLDEILQEK(hydroxyisobutyryl)K_]”, the collision cross section [1] is reported as 386.54 ± 0.81 Å².

Work on “TFGKAAGPSLSHTSGGTQSK [_TFGK(Dimethyl (K))AAGPSLSHTSGGTQSK_]” yielded a collision cross section [22] of 547.87 ± 1.3 Å².

Work on “LQAAYAGDKADDIQK [_LQAAYAGDK(Formyl)ADDIQK_]” yielded a collision cross section [17] of 428.24 ± 0.79 Å².

FDDTNPEKEEAK [_FDDTNPEK(Biotin)EEAK_] gave a collision cross section [9] of 416.55 ± 1.6 Å² and a collision cross section [10] of 504.96 ± 0.34 Å².

Work on LEKTIDDLEEK [_LEK(Biotin)TIDDLEEK_] yielded a collision cross section [9] of 422.95 ± 1.4 Å².

With “IHVQSSSDSSDEPAEKR [_IHVQSSSDSSDEPAEK(Formyl)R_]” the collision cross section [17] was 447.23 Å² and the collision cross section [23] was 491.34 ± 2.1 Å².

Work on SKLLFSNTAAQK [_SK(Formyl)LLFSNTAAQK_] yielded a collision cross section [17] of 390.83 ± 0.41 Å².

“YEQEHAAIQDKLFQVAK [_YEQEHAAIQDK(Methyl (K))LFQVAK_]” gave a collision cross section [20] of 557.9 ± 0.6 Å².

Substance “GAPGGRGAQLSVPSPAR [_GAPGGR(Methyl (R))GAQLSVPSPAR_]” has a collision cross section (charge state: 3, modification: Methyl (R)) of 494.35 ± 0.66 Å².

Work on KFGVLSDNFK [_K(Butyryl)FGVLSDNFK_] yielded a collision cross section (charge state: 2, modification: Butyryl) of 377.44 ± 0.84 Å².

GDYDLNAVR [_GDY(Phospho (Y))DLNAVR_] gave a collision cross section [24] of 348.87 ± 0.066 Å².

For “LQEKVESAQSEQK [_LQEK(Succinyl)VESAQSEQK_]”, the collision cross section [12] was 417.9 ± 0.86 Å² and the collision cross section [13] was 502.42 ± 0.72 Å².

For “SDSGKPYYYNSQTK [_SDSGK(Formyl)PYYYNSQTK_]”, the collision cross section [17] was 417.77 ± 0.18 Å².

Substance “IVEKYGYTHLSAGELLR [_IVEK(Methyl (K))YGYTHLSAGELLR_]” has a collision cross section [20] of 548.39 ± 0.79 Å².

For DHLSDKESK [_DHLSDK(Gluratylation)ESK_], the collision cross section [2] was 353.36 ± 0.63 Å² and the collision cross section [3] was 411.89 Å².

For “LQAAYAGDKADDIQK [_LQAAYAGDK(Methyl (K))ADDIQK_]”, the collision cross section [19] was 430.05 ± 1.4 Å² and the collision cross section [20] was 477.97 ± 2.6 Å².

In the case of “HTLLRAPAPELLPANVAGR [_HTLLR(Citrullination (R))APAPELLPANVAGR_]”, the collision cross section [28] is reported as 517.22 ± 8.9 Å².

With IGNSYFKEEK [_IGNSYFK(Succinyl)EEK_] the collision cross section [12] was 382.2 ± 0.76 Å².

“VYIASSSGSTAIKK [_VYIASSSGSTAIK(Propionyl)K_]” gave a collision cross section [18] of 415.66 ± 0.38 Å².

In the case of “VNVEAPDVNLEGLGGKLK [_VNVEAPDVNLEGLGGK(Acetyl (K))LK_]”, the collision cross section [26] is reported as 460.53 ± 2.8 Å² and the collision cross section [27] is reported as 542.09 Å².

ASEALLKQLK [_ASEALLK(Biotin)QLK_] gave a collision cross section [9] of 396.36 ± 2.2 Å².

Work on ALLQAKASGK [_ALLQAK(Succinyl)ASGK_] yielded a collision cross section [12] of 349.13 ± 0.82 Å².

For VFSIISSEKELK [_VFSIISSEK(Biotin)ELK_], the collision cross section [9] was 432.12 ± 1.1 Å².
